Measured values published in the RNAGym collection of RNA variant scans (doi:10.1093/molbev/msab373).

B1: Azoarcus group I ribozyme (parent)
chain: GUGCCUUGCGCCGGGAAACCACGCAAGGGAUGGUGUCAAAUUCGGCGAAACCUAAGCGCCCGCCCGGGCGUAUGGCAACGCCGAGCCAAGCUUCGGCGCCUGCGCCGAUGAAGGUGUAGAGACUAGACGGCACCCACCUAAGGCAAACGCUAUGGUGAAGGCAUAGUCCAGGGAGUGGCGAAAGUCACACAAACCGG

Variants of: B1
Experiment: reverse-splicing fitness (ratio to wild type); higher = more active; in vitro selection; Mg2+ level not given
Summary of the method: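 An in vitro group I ribozyme library with randomized positions was T7-transcribed and gel-purified. In triplicate, 10 pmol RNA in EPPS pH 7.5 was reacted with 50 pmoles of a 30-nt RNA substrate for 1 h at 37 °C across several added MgCl2 levels (1–48 mM), then stopped with EDTA. Products were reverse transcribed from a substrate-complementary primer, PCR-amplified and sequenced (HiSeq 4000). Fitness is a variant's read proportion after selection over that before, normalised to wild type.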

| Variant | reverse-splicing fitness |
| --- | --- |
| C82U A111U A120U A145U C150G C169G U176A | 0.0029 |
| C82U A111U A120U A145U C150G C169G U176C | 0.00288 |
| C82U A111U A120U A145U C169A | 0.00251 |
| C82U A111U A120U A145U C169G | 0.00303 |
| C82U A111U A120U A145U C169U | 0.0039 |
| C82U A111U A120U C150U C169A U176C | 0.00314 |
| C82U A111U A120U C150U C169A U176A | 0.0038 |
| C82U A111U A120U C150U C169A U176G | 0.00205 |
| C82U A111U A120U A145U C150U C169U | 0.00365 |
| C82U A111U A120U A145U C150U C169G | 0.00343 |
| C82U A111U A120U A145U C150U C169A | 0.00254 |
| C82U A111U A120U C150A C169G | 0.0044 |
| C82U A111U A120U C150A C169U | 0.00428 |
| C82U A111U A120U C150A C169A | 0.00469 |
| C82U A111U A120U A145U C169U U176C | 0.00278 |
| C82U A111U A120U A145U C169U U176G | 0.00177 |
| C82U A111U A120U A145U C169U U176A | 0.00286 |
| C82U A111U A120U C150G C169A U176C | 0.00404 |
| C82U A111U A120U C150G C169A U176G | 0.00272 |
| C82U A111U A120U C150G C169A U176A | 0.004 |
| C82U A111U A120U C169A | 0.00267 |

| Variant | reverse-splicing fitness |
| --- | --- |
| C82U A111U A120U A145U C169G U176C | 0.00286 |
| C82U A111U A120U A145U C169G U176G | 0.00176 |
| C82U A111U A120U A145U C169G U176A | 0.00244 |
| C82U A111U A120U A145U C150A C169G U176A | 0.00311 |
| C82U A111U A120U A145U C150A C169G U176G | 0.00192 |
| C82U A111U A120U A145U C150A C169G U176C | 0.00231 |
| C82U A111U A120U A145U C150G U176C | 0.0047 |
| C82U A111U A120U A145U C150G U176A | 0.00312 |
| C82U A111U A120U A145U C150G U176G | 0.00226 |
| C82U A111U A120U C150A C169U U176G | 0.00301 |
| C82U A111U A120U C150A C169U U176A | 0.0059 |
| C82U A111U A120U C150A C169U U176C | 0.00379 |
| C82U A111U A120U C150A U176G | 0.00299 |
| C82U A111U A120U C150A U176A | 0.00551 |
| C82U A111U A120U C150A U176C | 0.00596 |
| C82U A111U A120U A145U C150U C169G U176C | 0.00317 |
| C82U A111U A120U A145U C150U C169G U176G | 0.00202 |
| C82U A111U A120U A145U C150U C169G U176A | 0.00276 |
| C82U A111U A120U A145G C150G C169U U176G | 0.00345 |
| C82U A111U A120U A145G C150G C169U U176A | 0.00611 |
| C82U A111U A120U A145G C150G C169U U176C | 0.0058 |

| Variant | reverse-splicing fitness |
| --- | --- |
| C82U A111U A120U A145U C150U U176G | 0.00324 |
| C82U A111U A120U A145U C150U U176A | 0.00665 |
| C82U A111U A120U A145U C150U U176C | 0.00855 |
| C82U A111U A120U A145G C150G U176A | 0.00562 |
| C82U A111U A120U A145G C150G U176C | 0.00721 |
| C82U A111U A120U A145G C150G U176G | 0.00324 |
| C82U A111U A120U A145G C150U C169G U176C | 0.00383 |
| C82U A111U A120U A145G C150U C169G U176G | 0.00243 |
| C82U A111U A120U A145G C150U C169G U176A | 0.00606 |
| C82U A111U A120U A145G C150G C169G U176C | 0.00477 |
| C82U A111U A120U A145G C150G C169G U176A | 0.00749 |
| C82U A111U A120U A145G C150G C169G U176G | 0.00365 |
| C82U A111U A120U C150G C169U U176C | 0.00377 |
| C82U A111U A120U C150G C169U U176A | 0.00294 |
| C82U A111U A120U C150G C169U U176G | 0.00264 |
| C82U A111U A120U A145U C150A C169U U176G | 0.00195 |
| C82U A111U A120U A145U C150A C169U U176A | 0.00233 |
| C82U A111U A120U A145U C150A C169U U176C | 0.00234 |
| C82U A111U A120U A145G U176A | 0.00732 |
| C82U A111U A120U A145G U176C | 0.0112 |
| C82U A111U A120U A145G U176G | 0.00331 |

| Variant | reverse-splicing fitness |
| --- | --- |
| C82U A111U A120U C150A | 0.00701 |
| C82U A111U A120U C150G | 0.00645 |
| C82U A111U A120U C150U | 0.0175 |
| C82U A111U A120U A145G C150U C169A U176G | 0.00269 |
| C82U A111U A120U A145G C150U C169A U176C | 0.0032 |
| C82U A111U A120U A145G C150U C169A U176A | 0.00543 |
| C82U A111U A120U C150A C169G U176G | 0.0026 |
| C82U A111U A120U C150A C169G U176A | 0.00758 |
| C82U A111U A120U C150A C169G U176C | 0.00448 |
| C82U A111U A120U A145G C150G C169A U176G | 0.00474 |
| C82U A111U A120U A145G C150G C169A U176A | 0.0098 |
| C82U A111U A120U A145G C150G C169A U176C | 0.00711 |
| C82U A111U A120U A145G C169G U176G | 0.00146 |
| C82U A111U A120U A145G C169G U176C | 0.0035 |
| C82U A111U A120U A145G C169G U176A | 0.00271 |
| C82U A111U A120U C150G C169G U176G | 0.00254 |
| C82U A111U A120U C150G C169G U176A | 0.00411 |
| C82U A111U A120U C150G C169G U176C | 0.00263 |
| C82U A111U A120U A145U C150G C169U U176C | 0.00272 |
| C82U A111U A120U A145U C150G C169U U176G | 0.0024 |
| C82U A111U A120U A145U C150G C169U U176A | 0.00242 |
